Experimental findings from publication PMC9828152 are described below.

The target in this assay is Sp1 (specific protein 1) (UniProt P08047). The assay is described as follows: anti-Flag co-IP, Sp1 blot. The settings on record: reference: Ets1 WT-Flag; sites Y283.

Turning to “Ets1 (human E26 transcription factor 1) (from UniProt P14921) Ets1 Y283F-Flag”, the “binding against the reference” value is “weaker”.
